This data set concerns the molecule itself. Kind of data set: mass photometry.

B1: SH3-domain containing protein 2 (SH3P2), purified full-length protein (natural protein, Arabidopsis thaliana, UniProt Q8VWF1 1-368, looked up)
chain: MDAIRKQASRLREQVARQQQAVFKQFGGGGYGSGLADEAELNQHQKLEKLYISTRAAKHYQRDIVRGVEGYIVTGSKQVEIGTKLSEDSRKYGSENTCTNGNVLTRAALNYGRARAQMEKERGNMLKALGTQVAEPLRAMVLGAPLEDARHLAQRYDRMRQEAEAQATEVARRQAKARESQGNPDILMKLESAEAKLHDLKSNMTILGKEAASALASVEDQQQKLTLERLLSMVESERAYHQRVLQILDQLEGEMVSERQRIEAPSTPSSADSMPPPPSYEEANGVFASQMHDTSTDSMGYFLGEVLFPYHGVTDVELSLSTGEYVVVRKVTGSGWAEGECKGKAGWFPYGYIERRERVLASKVSEVF
One may read the stoichiometry N as the number of molecules, sites or subunits per partner or assembly. Regarding B1, the “stoichiometry N” value was determined as 2.
